# Results published in the supplement of paper PMC10126150.
# ± gives the standard deviation of the averaged measurements.
# System: ATP
# Assay: switch fluorescence ratio, 500 uM ATP over buffer (Cy3 cluster intensity, sum of 5 cycles each) (fold (ratio)); higher = stronger signal-on switching upon ATP binding; sequences stand for … in TCGTCGGCAGCGTCAGATGTGTATAAGAGACAGTTTTTTTTTTTTTTTTTTTTTTTTT…TC
# Conditions: aptamer strand: ATP DNA aptamer (quencher-CACCTGGGGGAGTATTGCGGAGGAAGG + anchor), 100 nM annealed; ATP concentration: 500 uM
# In short: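 Switching-strand clusters labelled with Cy3 on a modified Illumina MiSeq flow-cell were annealed to 100 nM quencher-labelled ATP aptamer, imaged in selection buffer, and re-imaged after 15 min with 500 uM ATP at 22 °C. This was done over five cycles with NaOH stripping and re-annealing in between. The fluorescence ratio is summed target-cycle over summed buffer-cycle Cy3 intensity per cluster, averaged per switch-domain sequence, excluding clusters outside 100-1000 RFU.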
# 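Also: ATP exposure 15 min at 22 °C before imaging.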
row,Sequence,switch fluorescence ratio
1,TATATGTATC,0.9678 ± 0.0011
2,TATATTAAGA,1.01 ± 0.016
3,TATATTAGCC,1.03 ± 0.039
4,TATATTGAAC,1.022 ± 0.0028
5,TATATTGCGT,0.9711 ± 0.0073
6,TATATTGTA,0.986 ± 0.03
7,TATATTTGTT,0.997 ± 0.039
8,TATATTTTAT,0.982 ± 0.035
9,TATATTTTGC,0.994 ± 0.026
10,TATATTTTGT,1.02 ± 0.016
11,TATCAAAGAT,1 ± 0.02
12,TATCAATTTT,1 ± 0.03
13,TATCACATTT,1.02 ± 0.018
14,TATCACTAGG,1.02 ± 0.0022
15,TATCACTTTC,1.06 ± 0.033
16,TATCATGTGT,0.977 ± 0.03
17,TATCATTTTT,1 ± 0.011
18,TATCCACATT,1.02 ± 0.019
19,TATCCATGGG,0.978 ± 0.03
20,TATCCGACAT,1.15 ± 0.039
21,TATCCGTGCT,1 ± 0.029
22,TATCCTGGCT,0.9961 ± 0.0089
23,TATCGAAGCG,0.969 ± 0.058
24,TATCGAAGGT,0.986 ± 0.017
25,TATCGAATTA,0.987 ± 0.017

row,Sequence,switch fluorescence ratio
1,TATCGAGATA,1.02 ± 0.04
2,TATCGCTTGG,1 ± 0.018
3,TATCGGCAGC,1.07 ± 0.043
4,TATCGGGATG,0.956 ± 0.03
5,TATCGGGGGG,0.996 ± 0.043
6,TATCGTACAT,1.11 ± 0.023
7,TATCGTATGT,0.991 ± 0.027
8,TATCGTTGTA,0.93881 ± 0.00024
9,TATCTATATT,1 ± 0.016
10,TATCTATGAG,1.01 ± 0.046
11,TATCTGGCTT,1.019 ± 0.0013
12,TATCTGGGTC,1.02 ± 0.067
13,TATCTTCTAT,1.035 ± 0.0096
14,TATGAAGCCG,1.06 ± 0.044
15,TATGAAGCCT,1.16 ± 0.02
16,TATGAATATT,0.985 ± 0.027
17,TATGAATGTG,0.991 ± 0.022
18,TATGACGCAG,0.993 ± 0.011
19,TATGACTCGT,0.99 ± 0.021
20,TATGAGCAGC,1.01 ± 0.066
21,TATGAGGGG,0.999 ± 0.027
22,TATGAGTAGG,0.995 ± 0.015
23,TATGAGTATT,0.9875 ± 0.0026
24,TATGATATGG,1.04 ± 0.025
25,TATGATATTA,0.9907 ± 0.0064

row,Sequence,switch fluorescence ratio
1,TATGATGCTA,1.03 ± 0.088
2,TATGATGGAA,0.966 ± 0.024
3,TATGATGGTG,1.04 ± 0.035
4,TATGATTCGG,0.992 ± 0.057
5,TATGATTGCG,1.01 ± 0.04
6,TATGCAGACT,0.956 ± 0.092
7,TATGCAGCG,1.001 ± 0.0024
8,TATGCAGTTT,0.968 ± 0.026
9,TATGCATATG,1.02 ± 0.048
10,TATGCGATTG,1.04 ± 0.019
11,TATGCGCCGT,0.984 ± 0.026
12,TATGCGTTGC,1.02 ± 0.023
13,TATGCTAGGT,0.983 ± 0.012
14,TATGCTGGAG,1.02 ± 0.0047
15,TATGGAAGTA,1.01 ± 0.033
16,TATGGAGAGG,0.984 ± 0.015
17,TATGGAGTTA,0.986 ± 0.027
18,TATGGATCGC,1.01 ± 0.026
19,TATGGATTTT,0.987 ± 0.016
20,TATGGCGGGT,1 ± 0.014
21,TATGGGCAGG,1.04 ± 0.022
22,TATGGGGTAG,1 ± 0.013
23,TATGGGTAGC,0.986 ± 0.019
24,TATGGTATGC,1.0138 ± 0.00069
25,TATGGTGACG,1 ± 0.12

row,Sequence,switch fluorescence ratio
1,TATGGTGTGG,0.967 ± 0.024
2,TATGGTTACG,0.9997 ± 0.0022
3,TATGGTTTAG,1.02 ± 0.015
4,TATGTAATTG,0.965 ± 0.058
5,TATGTAATTT,0.9932 ± 0.0092
6,TATGTACCTT,1.179 ± 0.0091
7,TATGTACGTT,1.04 ± 0.051
8,TATGTAGCCG,1.03 ± 0.098
9,TATGTATAGG,1.03 ± 0.049
10,TATGTATCCG,1.03 ± 0.062
11,TATGTATGGA,0.989 ± 0.015
12,TATGTCCCGT,0.974 ± 0.029
13,TATGTGATGT,0.981 ± 0.032
14,TATGTGGGTG,1.01 ± 0.035
15,TATGTTCGAG,0.968 ± 0.033
16,TATGTTGGGG,0.957 ± 0.018
17,TATGTTGTCG,1.08 ± 0.12
18,TATGTTTTGA,0.994 ± 0.033
19,TATGTTTTTA,1.02 ± 0.019
20,TATTAAACCG,1.06 ± 0.013
21,TATTAACCTG,1.03 ± 0.022
22,TATTAACGAG,0.995 ± 0.032
23,TATTAAGTTT,1.02 ± 0.039
24,TATTACACGT,1.021 ± 0.0046
25,TATTACCCAA,1.05 ± 0.025

row,Sequence,switch fluorescence ratio
1,TATTACGAGT,1.02 ± 0.013
2,TATTAGAAGC,1.01 ± 0.046
3,TATTAGACGA,0.963 ± 0.015
4,TATTAGCAGC,1.03 ± 0.012
5,TATTAGGTGG,1.1 ± 0.059
6,TATTAGTAAG,0.985 ± 0.034
7,TATTATAATA,0.98 ± 0.035
8,TATTATAGGA,0.982 ± 0.017
9,TATTATATTA,1.02 ± 0.019
10,TATTATCTTT,1.01 ± 0.024
11,TATTATGAGA,0.983 ± 0.026
12,TATTATGTAT,0.982 ± 0.031
13,TATTATGTGG,0.961 ± 0.01
14,TATTATTCTG,0.986 ± 0.023
15,TATTATTTTT,0.998 ± 0.026
16,TATTCACAAG,1.024 ± 0.0027
17,TATTCATCCA,1.01 ± 0.02
18,TATTCATTAA,0.969 ± 0.011
19,TATTCATTGT,1.005 ± 0.0074
20,TATTCCGGCC,1.05 ± 0.058
21,TATTCCTCTG,2.03 ± 0.26
22,TATTCGAGGC,1.06 ± 0.052
23,TATTCGCATC,2.12 ± 0.41
24,TATTCTCATG,1 ± 0.047
25,TATTCTTGGG,1 ± 0.028

row,Sequence,switch fluorescence ratio
1,TATTGACGCC,1.09 ± 0.033
2,TATTGACGGT,1.02 ± 0.022
3,TATTGACTAG,1.03 ± 0.059
4,TATTGAGAGA,1.02 ± 0.053
5,TATTGAGCTG,0.9775 ± 0.0087
6,TATTGAGTAA,1.02 ± 0.02
7,TATTGATTTG,1.02 ± 0.019
8,TATTGCATTA,1.03 ± 0.013
9,TATTGCGCTC,1.09 ± 0.065
10,TATTGCGGTC,1.005 ± 0.0018
11,TATTGCGTGG,0.9836 ± 0.0073
12,TATTGCTAGG,0.9582 ± 0.0063
13,TATTGCTTCA,1.03 ± 0.016
14,TATTGGCGTC,0.985 ± 0.029
15,TATTGGGGGC,1 ± 0.018
16,TATTGGGTGG,0.9919 ± 0.0053
17,TATTGGTCTA,1.04 ± 0.087
18,TATTGGTGGT,0.995 ± 0.027
19,TATTGGTGTT,0.99 ± 0.015
20,TATTGTAATT,1.01 ± 0.014
21,TATTGTATTC,1 ± 0.013
22,TATTGTGGGT,0.98 ± 0.035
23,TATTGTTTCG,1.02 ± 0.029
24,TATTTAAAAA,1.01 ± 0.035
25,TATTTAAGTG,1.039 ± 0.0092

row,Sequence,switch fluorescence ratio
1,TATTTACATT,1.03 ± 0.048
2,TATTTAGATG,1.01 ± 0.018
3,TATTTAGCCC,1.047 ± 0.0069
4,TATTTAGCGT,1.01 ± 0.067
5,TATTTCATTG,1.02 ± 0.03
6,TATTTCCCGT,1.06 ± 0.065
7,TATTTCGATA,1.029 ± 0.0047
8,TATTTCGGGG,1.02 ± 0.023
9,TATTTCTTGG,0.968 ± 0.014
10,TATTTGAAAG,1 ± 0.04
11,TATTTGAAGG,0.986 ± 0.053
12,TATTTGGACT,1.04 ± 0.046
13,TATTTGGGAC,1.02 ± 0.025
14,TATTTGGGTT,1.07 ± 0.082
15,TATTTGTCAT,1.02 ± 0.013
16,TATTTGTGCG,0.988 ± 0.035
17,TATTTGTTGC,1.03 ± 0.041
18,TATTTGTTTG,0.984 ± 0.03
19,TATTTTAAGT,0.993 ± 0.038
20,TATTTTACAG,1.02 ± 0.02
21,TATTTTAGTG,0.996 ± 0.025
22,TATTTTGAAA,0.992 ± 0.027
23,TATTTTGGTC,1.025 ± 0.0078
24,TATTTTTAAA,1.02 ± 0.028
25,TATTTTTCAT,1.01 ± 0.052

row,Sequence,switch fluorescence ratio
1,TATTTTTT,1.02 ± 0.027
2,TATTTTTTAG,0.96 ± 0.013
3,TCAAAAAGTG,0.989 ± 0.034
4,TCAAAAATAT,0.987 ± 0.025
5,TCAAAATTTC,1.01 ± 0.0072
6,TCAAAATTTT,1.01 ± 0.012
7,TCAAACAGCG,0.9861 ± 0.00055
8,TCAAAGCGGA,1.01 ± 0.046
9,TCAAATACG,1.057 ± 0.009
10,TCAAATTATG,1.01 ± 0.035
11,TCAAATTGCC,0.982 ± 0.016
12,TCAAATTTTG,0.999 ± 0.021
13,TCAACCTTTT,1.04 ± 0.052
14,TCAACGAGTA,1.029 ± 0.0061
15,TCAACGGGGG,1.08 ± 0.17
16,TCAACGGTCT,0.9955 ± 0.0048
17,TCAAGAGGCG,1.019 ± 0.0029
18,TCAAGGCAA,1.8 ± 0.037
19,TCAAGGGGGA,1 ± 0.035
20,TCAAGGGGTT,1.1 ± 0.15
21,TCAAGGGTTC,1.03 ± 0.064
22,TCAAGTAGAG,0.99 ± 0.011
23,TCAAGTATCT,1.02 ± 0.041
24,TCAAGTATGT,1.006 ± 0.01
25,TCAAGTTACA,1.078 ± 0.0041
